From the supplement of paper PMC10724198
± gives the standard deviation of the averaged measurements.

System: Saccharomyces cerevisiae
Experiment: protein stability index of tFT-peptide fusion (C-terminal peptide) (PSI (0-1 scale)); higher = more stable (slower turnover)
Settings: genetic background: wild type; temperature: 30 C
Description: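 Multiplexed protein stability (MPS) profiling in S. cerevisiae. Random 12-aa peptides (tFT-X12 library) are fused to the C-terminus of a sfGFP-mCherry tandem fluorescent timer, after mCherry and a GGGS linker. Cells are FACS-sorted into 8 mCherry/sfGFP bins and deep-sequenced. The protein stability index (PSI) is the read-weighted bin average, scaled from 0 (unstable) to 1 (stable). Only peptides with >10 reads are reported; cells were grown at 30 °C in SC-His with glucose.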
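Further: PSI is a weighted mean of sequencing reads over stability bins, variants kept only with over 10 reads, mCherry proximal and sfGFP distal, peptide attached via GGGS linker.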

Row | Sequence | protein stability index
1 | PLHPDSCGSLSS | 0.647 ± 0.038
2 | PLTPPRLPRPFH | 0.7123 ± 0.0065
3 | PPPSALPPLPQP | 0.712 ± 0.01
4 | GESAWWRSFGDV | 0.791 ± 0.11
5 | GAARTPGRARTL | 0.685 ± 0.049
6 | ESRRKRRVAGPN | 0.7072 ± 0.0066
7 | SLLSRYFLLPLL | 0.545 ± 0.061
8 | GGRGRRRGGVGG | 0.701 ± 0.011
9 | DQTKMKKIAKVE | 0.655 ± 0.044
10 | LLYANDPTRPVI | 0.652 ± 0.015
11 | SPRLQAFPGSRA | 0.713 ± 0.032
12 | LKCGGVRCGSAN | 0.648 ± 0.061
13 | RLGARGGSRGRP | 0.736 ± 0.012
14 | RWTLMMAIIRQR | 0.559 ± 0.024
15 | RHILPNKCRLHH | 0.714 ± 0.2
16 | HVHLHSTTAPPP | 0.695 ± 0.015
17 | GRGEKKREVDGG | 0.69 ± 0.065
18 | PPSLPPLPPSPA | 0.656 ± 0.085
19 | ISRATMKARARG | 0.6522 ± 0.004
20 | KSKLSSRTKLTH | 0.64 ± 0.03
21 | GVRHPRLMFSRS | 0.687 ± 0.02
22 | RNPLDGDSGSRG | 0.699 ± 0.0076
23 | PSPLPSSGHPPP | 0.6206 ± 0.0046
24 | SLGSISSATLLA | 0.6117 ± 0.0026
25 | WGVGRDVVLWGA | 0.895 ± 0.14

Row | Sequence | protein stability index
26 | SSSRCRVGHAGW | 0.67 ± 0.0096
27 | LLPYPAEPSPRR | 0.713 ± 0.013
28 | TRQGDLYYYLYV | 0.67 ± 0.024
29 | QKKPEMLNKKSY | 0.639 ± 0.015
30 | LSFTFSQLLSFP | 0.681 ± 0.16
31 | RPLPASTTLCVL | 0.689 ± 0.11
32 | ALAPLISLSFLS | 0.68919 ± 0.00059
33 | YLGCSLAMAFSL | 0.6278 ± 0.0054
34 | SSFFAFYSRRRF | 0.714 ± 0.052
35 | RVWYNVGEGPVR | 0.699 ± 0.0085
36 | KQPGAGGGEVGG | 0.6555 ± 0.002
37 | ELGTDGSQKRAA | 0.7045 ± 0.0053
38 | CFSFLEYCTSLP | 0.704 ± 0.012
39 | TACPPSTPSTAF | 0.689 ± 0.033
40 | RCLSISTSLCKV | 0.744 ± 0.052
41 | IFGMSIMLNRIT | 0.541 ± 0.041
42 | YASLSGSRYRPG | 0.62 ± 0.051
43 | RSRSIPTTLCLP | 0.655 ± 0.026
44 | PPLPAPSPPAPP | 0.68 ± 0.022
45 | EIKKKKSQTKKT | 0.67 ± 0.085
46 | SLSPGLPPVLLT | 0.666 ± 0.0067
47 | QSPRRQLEGKLE | 0.619 ± 0.046
48 | PPLLRAPLLPPC | 0.708 ± 0.021
49 | EVGMDLTTGPIS | 0.619 ± 0.056
50 | LDVQPVHPVDPE | 0.778 ± 0.013

Row | Sequence | protein stability index
51 | KIKKNKKKKRIN | 0.658 ± 0.026
52 | SIRQDSLMVWGG | 0.666 ± 0.097
53 | LGVGGPSVREGE | 0.706 ± 0.034
54 | YKPLKNKDEEMD | 0.6127 ± 0.00088
55 | CGVCRGSCGGYG | 0.583 ± 0.016
56 | VSVIRIVPPEFI | 0.672 ± 0.03
57 | TRRVKWSWLLKP | 0.7 ± 0.08
58 | SFSPNRAVSFST | 0.727 ± 0.082
59 | ASSHSFPDAPSL | 0.73 ± 0.046
60 | RIGDVIRIAEIK | 0.729 ± 0.069
61 | PSPPAPFPLVPT | 0.607 ± 0.032
62 | SGPSSIGSSCMS | 0.663 ± 0.023
63 | PYSLRSTASSFP | 0.63 ± 0.12
64 | SLEYIFSCWSLY | 0.711 ± 0.1
65 | VGKFGGAGGICQ | 0.685 ± 0.013
66 | VQGGSSCLWSVR | 0.72 ± 0.01
67 | RSLRLPPRTPLP | 0.652 ± 0.04
68 | GVAAGPAVRVLT | 0.669 ± 0.032
69 | FDAWSLASASLV | 0.741 ± 0.036
70 | GLSSFIGRRGRR | 0.713 ± 0.013
71 | LPPSPPTPPQYT | 0.6977 ± 0.003
72 | GLFCGLGVGTCG | 0.621 ± 0.059
73 | VWFEAGLGWFFL | 0.721 ± 0.047
74 | TIRHKALTRKSR | 0.713 ± 0.012
75 | PPPRPPPPSCPP | 0.685 ± 0.092

Row | Sequence | protein stability index
76 | LPPFSSPLSSLR | 0.693 ± 0.016
77 | RRVRRRRTGGAW | 0.669 ± 0.005
78 | LHPPAPRSPPPR | 0.639 ± 0.041
79 | RCLRALGLFARS | 0.719 ± 0.008
80 | SRFILSRLPLLS | 0.595 ± 0.065
81 | PHPPPTAPGPSP | 0.67 ± 0.00026
82 | CHSIEGSEPREA | 0.694 ± 0.085
83 | RALNRVWLSRRV | 0.607 ± 0.02
84 | VRGRREGVADER | 0.712 ± 0.084
85 | PPSLGPHSTSCD | 0.715 ± 0.071
86 | LFDLVVDSYGHI | 0.753 ± 0.034
87 | PPAPSSLPSPPS | 0.715 ± 0.017
88 | PSPLLSPPPPRP | 0.706 ± 0.024
89 | PRHCYIPLPLLP | 0.661 ± 0.021
90 | PSLLPSRPPRSI | 0.648 ± 0.034
91 | LVSSSPLPFSPI | 0.646 ± 0.079
92 | RTHRKNRRYKKN | 0.639 ± 0.0072
93 | SLPSSPPPSPPL | 0.7172 ± 0.0043
94 | QPRVSTSGHSAR | 0.722 ± 0.016
95 | LLLTLVFSFLSC | 0.531 ± 0.0088
96 | LTQPPPAPRVFF | 0.699 ± 0.013
97 | GSFMECIREGIF | 0.718 ± 0.058
98 | GLSGSPIPFIRL | 0.731 ± 0.021
99 | GGRGRRWAGPRC | 0.702 ± 0.039
100 | LVFGRGCGWLSG | 0.664 ± 0.0071

Row | Sequence | protein stability index
101 | IALACPGGSYIV | 0.6739 ± 0.0024
102 | FQIRGFFGLMAD | 0.754 ± 0.046
103 | WAARPSATGDRC | 0.664 ± 0.042
104 | PEIKKNRTVSIV | 0.664 ± 0.011
105 | LISSTLRDQKDE | 0.701 ± 0.047
106 | VRFPVEPYEAMF | 0.71 ± 0.0097
107 | SSGALLLLTGFM | 0.681 ± 0.013
108 | GVEGAVGGRRGA | 0.703 ± 0.029
109 | PFPRPALPAYQS | 0.705 ± 0.018
110 | RAVKLHIIIFDG | 0.551 ± 0.025
111 | SSCVSDKLLKNG | 0.695 ± 0.011
112 | PFPSLCFPPLNG | 0.727 ± 0.055
113 | YIRSKPASDQFA | 0.7093 ± 0.00062
114 | PAVHLYFIPPTG | 0.644 ± 0.038
115 | LSPALPPPMSAA | 0.577 ± 0.026
116 | ECPLPPCPPLST | 0.68 ± 0.0098
117 | SRGTKAERISIG | 0.654 ± 0.013
118 | TSPTKSPTTTNN | 0.709 ± 0.039
119 | LGAIGFVVVGGL | 0.622 ± 0.029
120 | AHLGRDVGRGTW | 0.729 ± 0.062
121 | PRRLFFFFFLSG | 0.656 ± 0.017
122 | SSGLALGCPLGA | 0.682 ± 0.062
123 | LLSVSFVGWPLT | 0.634 ± 0.062
124 | RRCGETTEQTVR | 0.71 ± 0.059
125 | PRLVHGFPRFHP | 0.669 ± 0.033

Row | Sequence | protein stability index
126 | IKKKTKQKQHEK | 0.786 ± 0.3
127 | AGGGAVWQGQQD | 0.725 ± 0.024
128 | PLPSCTLCRPAL | 0.695 ± 0.03
129 | TARVPARLTHAS | 0.683 ± 0.029
130 | LKFCSTLLKFAS | 0.564 ± 0.037
131 | TPRSCTLPTPPP | 0.606 ± 0.051
132 | WSISKSTWGPIG | 0.673 ± 0.023
133 | KSLNTAGVLTGR | 0.68 ± 0.034
134 | LVGSSYGRTDML | 0.715 ± 0.016
135 | VSVLVAFDTLPG | 0.711 ± 0.034
136 | GEKEARRKKVSM | 0.749 ± 0.071
137 | HLFAISGGKERI | 0.6966 ± 0.0039
138 | SVIYQMMGRIVR | 0.723 ± 0.07
139 | EEEAETRHSMVY | 0.738 ± 0.041
140 | QNNTRQQRKTPR | 0.683 ± 0.022
141 | CGGAKLPEQCQK | 0.6813 ± 0.0022
142 | VRPPRLSSCLLS | 0.656 ± 0.024
143 | RLCLFPVAPLLS | 0.599 ± 0.03
144 | STVESAWPAGPA | 0.712 ± 0.0016
145 | FPCGARPFPLAF | 0.704 ± 0.049
146 | LSGYIFFSFRSF | 0.505 ± 0.01
147 | RVKRTGLGVWGF | 0.649 ± 0.033
148 | NFYKKLSNKMGQ | 0.662 ± 0.039
149 | ISPLPPVPAGLS | 0.6906 ± 0.0056
150 | PPLPLPPRPTPP | 0.716 ± 0.071

Row | Sequence | protein stability index
151 | PPPAWTPPPRTA | 0.7163 ± 0.001
152 | SPSGLPPPLTYP | 0.667 ± 0.034
153 | KTVPRMESRVRA | 0.718 ± 0.053
154 | VNFGWWVVGSRS | 0.685 ± 0.062
155 | AKREGGGYSEDN | 0.664 ± 0.086
156 | EFRWVASGDLLS | 0.749 ± 0.017
157 | VVCSTRRPSLGS | 0.681 ± 0.03
158 | VAGSQYTAGGDV | 0.635 ± 0.044
159 | VLSFPYLSRKCI | 0.546 ± 0.037
160 | GQGRGERRRVRP | 0.653 ± 0.075
161 | FISEYPQCAALG | 0.738 ± 0.078
162 | PPPRSPLFSLPP | 0.678 ± 0.032
163 | GGCCLWVGFLGG | 0.7016 ± 0.0021
164 | QGTCSQSIEAHF | 0.706 ± 0.14
165 | LKMGAWAHTETW | 0.645 ± 0.033
166 | PSLPPLPPAPLL | 0.726 ± 0.039
167 | GVSVSPVVHFFL | 0.73 ± 0.062
168 | NKMLCTTEGVAA | 0.644 ± 0.038
169 | LGGGGGGGACGE | 0.655 ± 0.022
170 | SLPPPPLLPRPL | 0.686 ± 0.061
171 | PPHIIPHPKAHT | 0.687 ± 0.017
172 | GLRLHVQCFGRV | 0.699 ± 0.024
173 | PGCPRDRLLLQL | 0.67 ± 0.025
174 | SPQKCKSAPSSC | 0.6746 ± 0.0031
175 | SRVARWRSPGCC | 0.6474 ± 0.0012

Row | Sequence | protein stability index
176 | LPSSVLTAAPSA | 0.661 ± 0.076
177 | LETVWRFECGWG | 0.7759 ± 0.0048
178 | YASDGNSRLRAN | 0.691 ± 0.02
179 | TTLNAETCFPLS | 0.702 ± 0.043
180 | MIGWQADSINKI | 0.783 ± 0.022
181 | YIVPAGGGLVSG | 0.642 ± 0.096
182 | LNSRQATLRPQT | 0.716 ± 0.021
183 | GVLVESGSVESR | 0.744 ± 0.12
184 | DRVGGDWMERGG | 0.719 ± 0.036
185 | SCPRASSSSLTA | 0.671 ± 0.07
186 | PPLHPPLPPPPS | 0.71 ± 0.06
187 | PSILPPPSSCPP | 0.767 ± 0.041
188 | RPSPPALPRFLL | 0.703 ± 0.0073
189 | SPTLPLTRRHPR | 0.718 ± 0.035
190 | FGCLGVLGSGRC | 0.728 ± 0.037
191 | SVPSRSSAALCS | 0.714 ± 0.067
192 | FSLVHSFRLSFC | 0.599 ± 0.012
193 | ACKVIMSVGRRL | 0.644 ± 0.064
194 | VCVVGGSILRAV | 0.711 ± 0.048
195 | STKGAIKVEECI | 0.636 ± 0.023
196 | LTSSGLSFSAVL | 0.7249 ± 0.0027
